This note sets out measurements from publication PMC12216690, “MORC2 is a phosphorylation-dependent DNA compaction machine” (Nature Communications, 2024).

Numbering of substitutions follows the chain as printed. In names and notes the source's numbering stands.

In data set [1] the target is T1, MORC2 WT (Homo sapiens, UniProt Q9Y6X9 1-1032).
T1 sequence: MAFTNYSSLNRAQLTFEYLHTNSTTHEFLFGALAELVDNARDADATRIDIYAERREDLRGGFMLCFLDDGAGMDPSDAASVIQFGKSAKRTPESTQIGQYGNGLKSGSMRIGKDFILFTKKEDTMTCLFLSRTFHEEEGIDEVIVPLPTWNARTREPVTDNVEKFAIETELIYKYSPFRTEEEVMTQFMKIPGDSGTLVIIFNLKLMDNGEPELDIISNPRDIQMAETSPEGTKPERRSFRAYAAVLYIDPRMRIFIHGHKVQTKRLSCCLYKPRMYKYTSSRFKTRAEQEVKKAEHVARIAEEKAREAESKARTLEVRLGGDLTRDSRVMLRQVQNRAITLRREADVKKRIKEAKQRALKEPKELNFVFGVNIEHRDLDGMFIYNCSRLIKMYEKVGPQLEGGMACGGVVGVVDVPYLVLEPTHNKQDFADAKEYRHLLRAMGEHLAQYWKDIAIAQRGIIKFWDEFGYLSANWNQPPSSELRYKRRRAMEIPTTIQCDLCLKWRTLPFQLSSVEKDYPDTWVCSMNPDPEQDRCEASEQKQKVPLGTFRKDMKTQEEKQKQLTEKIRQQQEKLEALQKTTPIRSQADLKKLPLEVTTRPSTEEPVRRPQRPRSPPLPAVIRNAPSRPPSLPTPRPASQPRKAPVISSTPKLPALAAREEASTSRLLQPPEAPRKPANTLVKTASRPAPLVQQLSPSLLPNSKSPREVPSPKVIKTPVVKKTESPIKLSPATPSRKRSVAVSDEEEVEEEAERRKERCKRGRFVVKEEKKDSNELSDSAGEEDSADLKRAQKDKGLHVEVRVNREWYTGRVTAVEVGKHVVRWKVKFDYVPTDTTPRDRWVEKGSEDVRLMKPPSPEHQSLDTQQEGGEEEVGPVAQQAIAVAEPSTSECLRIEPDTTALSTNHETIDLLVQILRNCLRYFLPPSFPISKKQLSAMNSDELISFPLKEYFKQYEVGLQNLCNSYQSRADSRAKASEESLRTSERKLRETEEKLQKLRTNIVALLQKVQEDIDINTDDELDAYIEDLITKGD
Briefly: SPR; EMSA: 20 mM Tris pH 7.4, 75 mM NaCl, 5% glycerol, 0.005% NP-40, 0.5 mM MgCl2, RT 30 min; SPR: 10 mM HEPES pH 7.4, 300 mM NaCl, 3 mM EDTA, 0.05% Tween-20, 20 C. The settings on record: protein: recombinant; tags: C-terminal 3C site-twin StrepII; chain copies: 2; label: 5'-biotin on strand 1; blunt. A general note: In SPR one partner is held on a chip, and binding of the other changes the refractive index at the surface.

A further data set deals with T2, MORC2 dephosphorylated (Homo sapiens, UniProt Q9Y6X9 1-1032).
T2 sequence: T1 sequence
Kind of data set: SPR; lambda-PPase treated; EMSA: 20 mM Tris pH 7.4, 75 mM NaCl, 5% glycerol, 0.005% NP-40, 0.5 mM MgCl2, RT 30 min; SPR: 10 mM HEPES pH 7.4, 300 mM NaCl, 3 mM EDTA, 0.05% Tween-20, 20 C. The settings on record: protein: recombinant; tags: C-terminal 3C site-twin StrepII; chain copies: 2; label: 5'-biotin on strand 1; blunt.

In the next data set the target is T3, MORC2 GHKL+CC1 (Homo sapiens, UniProt Q9Y6X9 1-495).
T3 sequence: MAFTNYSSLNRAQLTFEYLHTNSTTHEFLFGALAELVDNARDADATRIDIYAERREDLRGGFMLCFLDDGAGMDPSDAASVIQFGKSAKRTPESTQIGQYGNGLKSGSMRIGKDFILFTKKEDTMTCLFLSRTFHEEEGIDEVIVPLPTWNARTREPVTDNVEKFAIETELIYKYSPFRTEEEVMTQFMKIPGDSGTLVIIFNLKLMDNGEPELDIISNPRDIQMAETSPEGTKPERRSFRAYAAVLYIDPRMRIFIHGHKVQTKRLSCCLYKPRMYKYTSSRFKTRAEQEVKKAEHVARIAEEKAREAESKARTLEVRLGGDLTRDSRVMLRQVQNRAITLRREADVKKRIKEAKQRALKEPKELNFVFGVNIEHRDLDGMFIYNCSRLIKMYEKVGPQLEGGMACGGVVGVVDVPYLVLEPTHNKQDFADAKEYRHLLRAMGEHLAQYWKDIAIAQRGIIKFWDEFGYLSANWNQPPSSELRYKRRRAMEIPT
Briefly: EMSA; negligible binding; EMSA: 20 mM Tris pH 7.4, 75 mM NaCl, 5% glycerol, 0.005% NP-40, 0.5 mM MgCl2, RT 30 min; SPR: 10 mM HEPES pH 7.4, 300 mM NaCl, 3 mM EDTA, 0.05% Tween-20, 20 C. The note with it: protein: recombinant; tags: C-terminal 3C site-twin StrepII; label: 5' 6FAM, IRDye680 or IRDye800 on XOm1; blunt. (In general: A gel shift assay detects complexes by their altered migration in electrophoresis.)

A further data set concerns the target T4, MORC2 CW (Homo sapiens, UniProt Q9Y6X9 496-603).
T4 sequence: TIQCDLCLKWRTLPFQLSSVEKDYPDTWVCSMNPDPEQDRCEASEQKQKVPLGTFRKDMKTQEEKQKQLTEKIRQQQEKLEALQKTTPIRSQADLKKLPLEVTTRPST
The data set is described as above. The settings on record: protein: recombinant; tags: C-terminal 3C site-twin StrepII; label: 5' 6FAM, IRDye680 or IRDye800 on XOm1; blunt.

The next data set addresses T5, MORC2 CC2 (Homo sapiens, UniProt Q9Y6X9 544-587).
T5 chain: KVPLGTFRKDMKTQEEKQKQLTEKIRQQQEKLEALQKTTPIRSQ
Briefly: EMSA; DNA length inferred; EMSA: 20 mM Tris pH 7.4, 75 mM NaCl, 5% glycerol, 0.005% NP-40, 0.5 mM MgCl2, RT 30 min; SPR: 10 mM HEPES pH 7.4, 300 mM NaCl, 3 mM EDTA, 0.05% Tween-20, 20 C. The settings on record: protein: recombinant; tags: C-terminal 3C site-twin StrepII; label: 5' 6FAM, IRDye680 or IRDye800 on XOm1; blunt.

The target in the next data set is T6, MORC2 CC3 (Homo sapiens, UniProt Q9Y6X9 738-776).
T6 chain: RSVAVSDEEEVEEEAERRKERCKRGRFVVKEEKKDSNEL
Described as above. The note with it: protein: recombinant; tags: C-terminal 3C site-twin StrepII; label: 5' 6FAM, IRDye680 or IRDye800 on XOm1; blunt.

Data set [2] concerns the target T1, MORC2 WT. Briefly: competition; pre-bound; 90 bp competitor still taken up; EMSA: 20 mM Tris pH 7.4, 75 mM NaCl, 5% glycerol, 0.005% NP-40, 0.5 mM MgCl2, RT 30 min; SPR: 10 mM HEPES pH 7.4, 300 mM NaCl, 3 mM EDTA, 0.05% Tween-20, 20 C. The note with it: protein: recombinant; tags: C-terminal 3C site-twin StrepII; chain copies: 2; linear.
Data set [3] deals with the molecule itself. Kind of data set: SEC-MALS; XBridge Protein BEH SEC column; 50 mM HEPES pH 8.0, 300 mM NaCl, 1 mM TCEP; 20 µl of protein at 1 mg/ml injected; no nucleotide. (In general: Size exclusion chromatography separates by hydrodynamic size, large species first.)
Data set [4] concerns the molecule itself. Briefly: cryo-EM structure; 2 µM protein with AMP-PNP, with or without three-fold molar excess of 60 bp DNA; C2 symmetry imposed.
Data set [5] concerns the molecule itself. Kind of data set: atomic force microscopy; dry AFM, 10 nM MORC2 in 40 mM Tris pH 7.5, 50 mM NaCl, 1 mM MgCl2, 0.5 mM TCEP, with 1 mM ATP, with 1 mM AMP-PNP or without ATP, on poly-O-lysine treated mica; particle volumes fitted with two gaussians.
Data set [6] concerns the molecule itself. Kind of data set: number and brightness analysis (fluorescence fluctuation spectroscopy); live MORC2 knockout HEK293T cells with low expression of MORC2-meGFP, nucleus, 37 degrees; without or with 0.5 µg/mL neocarzinostatin for 1 hour.

B1: 60 bp dsDNA (biotin, SPR) (dsDNA)
DNA 1: ACGCTGCCGAATTCTACCAGTGCCTTGCTAGGACATCTTTGCCCACCTGCAGGTTCACCC
DNA 2: GGGTGAACCTGCAGGTGGGCAAAGATGTCCTAGCAAGGCACTGGTAGAATTCGGCAGCGT
As a reminder, the Kd is the constant that tells how readily two partners part at equilibrium. Turning to B1, the equilibrium dissociation constant (Kd) in the data set with MORC2 WT [1] was determined as 26.3 ± 11.4 nM; with MORC2 dephosphorylated, 15.3 ± 9.1 nM.

B2: 60 bp dsDNA (XOm1/XOm1.comp) (dsDNA)
DNA 1: B1 DNA 1
DNA 2: B1 DNA 2
For the molecule B2, the binding result in the data set with MORC2 GHKL+CC1 is given as “no binding”; in the data set with MORC2 CW, “no binding”; with MORC2 CC2, “binds”; in the data set with MORC2 CC3, “no binding”.

B3: 101 bp linear dsDNA (dsDNA)
DNA 1: CGGTCGTTTAGCATACTAATCTGAGAGTCCGACGGTCGTCAGTCAGTCATGACTTCACAGAGGAAGGGCCAGTATCCTGTCCAAACTTGATGCTCGAATTC
DNA 2: GAATTCGAGCATCAAGTTTGGACAGGATACTGGCCCTTCCTCTGTGAAGTCATGACTGACTGACGACCGTCGGACTCTCAGATTAGTATGCTAAACGACCG
Regarding B3, in the data set with MORC2 WT [2], the binding result is reported as “binds”.

B4: full-length MORC2 (MORC2^WT) (natural protein, human, UniProt Q9Y6X9 1-1032, looked up)
chain: T1 sequence
modifications: came phosphorylated from insect cells at multiple sites; top 6 hits S725, S730, S739, S743, S777, S779
notes: MORC2, human, UniProt Q9Y6X9, full length (1-1032); No cleavage of the tag is described; the SPR and single-molecule methods speak of StrepII-tagged MORC2; also called MORC2 WT (1-1032); MORC2^Apo; source: Sf9 insect cells, purified (Strep-Tactin, HiTrap Q, Superose 6 SEC)
For orientation: stoichiometry N means the number of molecules, sites or subunits per partner or assembly. For B4, the “stoichiometry N” value in data set [3] was found to be 2.

B5: MORC2 phosphodead (MORC2^PD) mutant (natural protein, human, UniProt Q9Y6X9 1-1032, looked up)
chain: T1 sequence with S725A, S730A, S739A, S743A, S777A, S779A
notes: MORC2, human, UniProt Q9Y6X9, full length with six serine to alanine mutations in the CTD; Only the ATPase domain is modelled in the cryo-EM maps; also called MORC2^PD-DNA; source: Sf9 insect cells, purified (Strep-Tactin, HiTrap Q, Superose 6 SEC)
Consider B5, for which, in [4], the binding result is “binds”.

B6: ATP-binding-deficient mutant MORC2 N39A (MORC2^N39A) (natural protein, human, UniProt Q9Y6X9 1-1032, looked up)
chain: T1 sequence with N39A
notes: MORC2, human, UniProt Q9Y6X9, full length with N39A; also called N39A mutant; source: Sf9 insect cells, purified (Strep-Tactin, HiTrap Q, Superose 6 SEC)
As for B6, in data set [5], the binding result is “binds”.

B7: full-length MORC2 ATPase-dead mutant (MORC2^S87A) (natural protein, human, UniProt Q9Y6X9 1-1032, looked up)
chain: T1 sequence with S87A
notes: MORC2, human, UniProt Q9Y6X9, full length with S87A; Only the ATPase domain is modelled in the cryo-EM map; also called S87A mutant; source: Sf9 insect cells, purified (Strep-Tactin, HiTrap Q, Superose 6 SEC)
Take B7: the binding result in data set [4] is listed as “binds”.

B8: monomeric eGFP (meGFP)-tagged MORC2 (natural protein, human, UniProt Q9Y6X9 1-1032, looked up)
chain: T1 sequence
notes: MORC2, human, UniProt Q9Y6X9; Probably the full-length cDNA; also called MORC2-meGFP; pBacMam-MORC2-meGFP-StrepII; source: expressed in MORC2 knockout HEK293T cells, in live cells
B8: the “fold increase of dimers upon neocarzinostatin” value in data set [6] is around 2 fold.
